Assay results reported in paper PMC4013092.

Target: Mdb1 (UniProt O14079)
Assay: biotin-peptide streptavidin pull-down, Coomassie stain
Details: reference: unphosphorylated H2A peptide; sites S129

## H2A.1 C-terminal 13 residues, 120-132 (from UniProt P04909) pS129 (γH2A) peptide
  binding against the reference: gained
